Test results reported in the supplement of paper PMC7877785.
± gives the uncertainty stated by the source.

Test: self-splicing fitness, log relative to wild type (ln ratio); higher = more splicing; Tetrahymena group I intron in knt gene, E. coli kanamycin selection, DiMSum; sequences stand for … in CUCUCU…GGAGGGAAAAGUUAUCAGGCAUGCACCUGGUAGCUAGUCUUUAAACCAAUAGAUUGCAUCGGUUUAAAAGGCAAGACCGUCAAAUUGCGGGAAAGGGGUCAACAGCCGUUCAGUACCAAGUCUCAGGGGAAACUUUGAGAUGGCCUUGCAAAGGGUAUGGUAAUAAGCUGACGGACAUGGUCCUAACCACGCAGCCAAGUCCUAAGUCAACAGAUCUUCUGUUGAUAUGGAUGCAGUUCACAGACUAAAUGUCGGUCGGGGAAGAUGUAUUCUUCUCAUAAGAUAUAGUCGGACCUCUCCUUAAUGGGAGCUAGCGGAUGAAGUGAUGCAACACUGGAGCCGCUGGGAACUAAUUUGUAUGCGAAAGUAUAUUGAUUAGUUUUGGAGUACUCGUGGUCG
Method in brief: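 Colonies from six replicate transformations of E. coli BL21(DE3) were pooled and amplicon-sequenced on an Illumina HiSeq 2500. The library placed an intron with all eight P1ex-region nucleotides randomised inside the knt kanamycin-resistance gene on pET-22b(+), and cells grew overnight at 37°C or 30°C on LB agar with or without 25 μg/mL kanamycin (plus 100 μg/mL carbenicillin, 50 μM IPTG, 0.2% rhamnose). Fitness is the DiMSum error-weighted combination of wild-type-normalised replicate fold changes, kanamycin versus none.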

| Sequence | self-splicing fitness (ln) (30 °C) | self-splicing fitness (ln) (37 °C) |
| --- | --- | --- |
| ACGCAGCAAUAUUACGCACG | -1.8 ± 0.12 | -1.31 ± 0.12 |
| ACGCAGCAAUAUUACGCCAU | -2.86 ± 0.17 | -2.05 ± 0.17 |
| ACGCAGCAAUAUUACGCCCU | -0.193 ± 0.12 | 0.187 ± 0.12 |
| ACGCAGCAAUAUUACGCGCU | -2.24 ± 0.17 | -1.31 ± 0.14 |
| ACGCAGCAAUAUUACGCUCU | -0.517 ± 0.067 | 0.303 ± 0.076 |
| ACGCAGCAAUAUUACGCUUA | -0.737 ± 0.089 | -0.286 ± 0.099 |
| ACGCAGCAAUAUUACGGAUA | -3.47 ± 0.18 | -1.7 ± 0.12 |
| ACGCAGCAAUAUUACGGCAG | -1.22 ± 0.093 | -1.08 ± 0.15 |
| ACGCAGCAAUAUUACGGCAU | -0.55 ± 0.059 | 0.0845 ± 0.072 |
| ACGCAGCAAUAUUACGGUCC | -2.36 ± 0.14 | -1.01 ± 0.13 |
| ACGCAGCAAUAUUACGGUGU | -3.81 ± 0.14 | -2.29 ± 0.096 |
| ACGCAGCAAUAUUACGGUUA | -1.13 ± 0.077 | -1.04 ± 0.062 |
| ACGCAGCAAUAUUACGUAUA | -2.65 ± 0.14 | -2.54 ± 0.13 |
| ACGCAGCAAUAUUACGUUAA | -3.4 ± 0.31 | -2.88 ± 0.24 |
| ACGCAGCAAUAUUACGUUAC | -3.14 ± 0.15 | -3.27 ± 0.23 |
| ACGCAGCAAUAUUACGUUCG | -1.24 ± 0.059 | -0.442 ± 0.068 |
| ACGCAGCAAUAUUACGUUUG | -3.65 ± 0.2 | -2.69 ± 0.2 |
| ACGGAGCAAUAUUACGAACU | -0.565 ± 0.11 | -0.0683 ± 0.16 |
| ACGGAGCAAUAUUACGACAA |  | -1.73 ± 0.45 |
| ACGGAGCAAUAUUACGACAU | -1.947 ± 0.018 | -1.1 ± 0.035 |
| ACGGAGCAAUAUUACGACCG | -2.1 ± 0.17 | -1.78 ± 0.25 |
| ACGGAGCAAUAUUACGAGAU | -3.66 ± 0.21 | 0.0618 ± 0.16 |
| ACGGAGCAAUAUUACGAGGA | -2.89 ± 0.27 | -2.92 ± 0.43 |
| ACGGAGCAAUAUUACGAGGG | -3.45 ± 0.25 | -2.82 ± 0.32 |
| ACGGAGCAAUAUUACGAGGU | -2.12 ± 0.22 | -2.5 ± 0.29 |
| ACGGAGCAAUAUUACGAUGU | -3.19 ± 0.2 | -2.52 ± 0.27 |

| Sequence | self-splicing fitness (ln) (30 °C) | self-splicing fitness (ln) (37 °C) |
| --- | --- | --- |
| ACGGAGCAAUAUUACGAUUU | -2.33 ± 0.12 | -1.65 ± 0.15 |
| ACGGAGCAAUAUUACGCAGA | -2.52 ± 0.36 | -2.02 ± 0.29 |
| ACGGAGCAAUAUUACGCCAU | -2.63 ± 0.25 |  |
| ACGGAGCAAUAUUACGCCUC | -2.43 ± 0.43 | -1.82 ± 0.27 |
| ACGGAGCAAUAUUACGCCUG | -3.41 ± 0.2 | -1.52 ± 0.19 |
| ACGGAGCAAUAUUACGCUCU | -3.26 ± 0.32 | -1.22 ± 0.3 |
| ACGGAGCAAUAUUACGCUUG | -1.71 ± 0.11 | -0.212 ± 0.1 |
| ACGGAGCAAUAUUACGGACC |  | -0.877 ± 0.34 |
| ACGGAGCAAUAUUACGGAGG | -4.47 ± 0.46 | -1.69 ± 0.19 |
| ACGGAGCAAUAUUACGGCAU |  | -1.53 ± 0.23 |
| ACGGAGCAAUAUUACGGGGU | -3.65 ± 0.21 | -1.45 ± 0.21 |
| ACGGAGCAAUAUUACGUACU | -1.69 ± 0.091 | -2.32 ± 0.16 |
| ACGGAGCAAUAUUACGUAGC |  | -1.64 ± 0.21 |
| ACGGAGCAAUAUUACGUCAA | -2.71 ± 0.39 | -2.94 ± 0.36 |
| ACGGAGCAAUAUUACGUCCA | -3.19 ± 0.17 | -0.993 ± 0.15 |
| ACGGAGCAAUAUUACGUGAG | -3.06 ± 0.28 | -1.15 ± 0.19 |
| ACGGAGCAAUAUUACGUUAC |  | -2.56 ± 0.22 |
| ACGGAGCAAUAUUACGUUGU | -3.46 ± 0.14 | -2.07 ± 0.13 |
| ACGUAGCAAUAUUACGAAAG | -3.88 ± 0.25 | -3.59 ± 0.31 |
| ACGUAGCAAUAUUACGACCC | -0.864 ± 0.19 | 0.196 ± 0.22 |
| ACGUAGCAAUAUUACGACCU | -0.0641 ± 0.099 | 0.527 ± 0.11 |
| ACGUAGCAAUAUUACGACGG | -0.92 ± 0.11 | -0.526 ± 0.13 |
| ACGUAGCAAUAUUACGAUGU | -2.37 ± 0.14 | -1.6 ± 0.17 |
| ACGUAGCAAUAUUACGCGAC | -3.16 ± 0.21 | -1.9 ± 0.22 |
| ACGUAGCAAUAUUACGCGCC | -1.23 ± 0.19 | -0.895 ± 0.25 |
| ACGUAGCAAUAUUACGCUCG | -2.16 ± 0.12 | -0.0752 ± 0.15 |

| Sequence | self-splicing fitness (ln) (30 °C) | self-splicing fitness (ln) (37 °C) |
| --- | --- | --- |
| ACGUAGCAAUAUUACGGAGG | -4.05 ± 0.28 | -2.53 ± 0.19 |
| ACGUAGCAAUAUUACGGCAC |  | -1.73 ± 0.42 |
| ACGUAGCAAUAUUACGGCGA | 0.0177 ± 0.1 | 0.229 ± 0.12 |
| ACGUAGCAAUAUUACGGCGU | -3.88 ± 0.14 | -2.48 ± 0.15 |
| ACGUAGCAAUAUUACGUAUA | -3.36 ± 0.33 | -2.1 ± 0.2 |
| ACGUAGCAAUAUUACGUCUG | -2.47 ± 0.16 | -2.71 ± 0.19 |
| ACGUAGCAAUAUUACGUGUG | -3.26 ± 0.14 | -3.01 ± 0.16 |
| ACGUAGCAAUAUUACGUUCC | -3.29 ± 0.24 | -2.04 ± 0.23 |
| ACUAAGCAAUAUUACGACCC | -1.08 ± 0.25 | -0.275 ± 0.32 |
| ACUAAGCAAUAUUACGACCG | -0.45 ± 0.17 | 0.0545 ± 0.21 |
| ACUAAGCAAUAUUACGACUA | -1.52 ± 0.14 | -0.721 ± 0.14 |
| ACUAAGCAAUAUUACGAGAA | -2.46 ± 0.28 | -2.37 ± 0.26 |
| ACUAAGCAAUAUUACGAGCA | -1.29 ± 0.086 | -0.197 ± 0.098 |
| ACUAAGCAAUAUUACGAGGG | -2.55 ± 0.17 | -2.31 ± 0.24 |
| ACUAAGCAAUAUUACGCCAA | -2.24 ± 0.12 | -2.26 ± 0.16 |
| ACUAAGCAAUAUUACGCCGU | -1.86 ± 0.2 | -1.64 ± 0.18 |
| ACUAAGCAAUAUUACGCUUC | -1.69 ± 0.17 | -0.717 ± 0.14 |
| ACUAAGCAAUAUUACGGACG | -0.961 ± 0.087 | -0.106 ± 0.14 |
| ACUAAGCAAUAUUACGGAGC | -2.87 ± 0.17 | -0.628 ± 0.14 |
| ACUAAGCAAUAUUACGGCAA | -0.655 ± 0.089 | -0.133 ± 0.1 |
| ACUAAGCAAUAUUACGGCUU | -2.2 ± 0.1 | -1.27 ± 0.12 |
| ACUAAGCAAUAUUACGGGCA | -1.27 ± 0.089 | -0.405 ± 0.1 |
| ACUAAGCAAUAUUACGGUUC | -3.92 ± 0.2 | -1.42 ± 0.13 |
| ACUAAGCAAUAUUACGUAGU | -3.04 ± 0.14 | -3.45 ± 0.21 |
| ACUAAGCAAUAUUACGUCUG | -1.37 ± 0.084 | -0.847 ± 0.1 |
